Experimental data from patent US20240115745A1 (3B PHARMACEUTICALS, published 2024).
*1 amine or outer side, *2 acyl side, *3 side chain or, on linkers, in order; H or OH if unused. Bridges are numbered along the chain shown (N, C = ends). Primed or numbered codes have the meaning given here. [ ]: non-standard residue; d: D form. The star is where a group is joined. mli = maleimide cyclization element: 3,4-maleimide inserted symmetrically, forming a vinyl thioether with each Cys sulfur; Ttds = 1,13-diamino-4,7,10-trioxatridecan-succinamic acid, NCCCOCCOCCOCCCNC(=O)CCC(=O)*; mli(DOTA-Ttd) = 3,4-N-(DOTA-Ttd)-maleimide bridging two Cys S atoms as vinyl thioethers; Buur = n-butylaminocarbonyl blocking group, CCCCNC(=O)*; DOTA = O=C(O)CN1CCN(CC(=O)O)CCN(CC(=O)*)CCN(CC(=O)O)CC1; Maleimide(3,4-diyl) = O=C1NC(=O)C([*:2])=C1[*:1]; Buur″ = n-butylaminocarbonyl, CCCCNC(=O)*; O2Oc = 3,6-dioxaoctanoic acid; β3hK = NCCCC[C@H](N)CC(=O)O; 4Amb = NCc1ccc(C(=O)O)cc1; Nle = CCCC[C@H](N)C(=O)O; Hexanoyl = CCCCCC(=O)*

B1: compound Buur-[Cys-Pro-Pro-Thr-Glu-Phe-Cys]-Bhk(DOTA)-OH (1014) (peptide)
peptide: {Buur″}-CPPTEFC[β3hK](DOTA)-OH
modifications: disulfide 1-7
SMILES: CCCCNC(=O)N[C@H]1CSSC[C@@H](C(=O)N[C@@H](CCCCNC(=O)CN2CCN(CC(=O)O)CCN(CC(=O)O)CCN(CC(=O)O)CC2)CC(=O)O)NC(=O)[C@H](Cc2ccccc2)NC(=O)[C@H](CCC(=O)O)NC(=O)[C@H]([C@@H](C)O)NC(=O)[C@@H]2CCCN2C(=O)[C@@H]2CCCN2C1=O
B2: compound Hex-[Cys-Pro-Pro-Thr-Glu-Phe-Cys]-Bhk(DOTA)-OH (1012) (peptide)
peptide: Hexanoyl-CPPTEFC[β3hK](DOTA)-OH
modifications: disulfide 1-7
SMILES: CCCCCC(=O)N[C@H]1CSSC[C@@H](C(=O)N[C@@H](CCCCNC(=O)CN2CCN(CC(=O)O)CCN(CC(=O)O)CCN(CC(=O)O)CC2)CC(=O)O)NC(=O)[C@H](Cc2ccccc2)NC(=O)[C@H](CCC(=O)O)NC(=O)[C@H]([C@@H](C)O)NC(=O)[C@@H]2CCCN2C(=O)[C@@H]2CCCN2C1=O
B3: compound Hex-[Cys(mli)-Pro-Pro-Thr-Glu-Phe-Cys]-Bhk(DOTA)-OH (2011) (peptide)
peptide: Hexanoyl-CPPTEFC[β3hK](DOTA)-OH
modifications: linker 1-7 via Maleimide(3,4-diyl)
SMILES: CCCCCC(=O)N[C@H]1CSC2=C(SC[C@@H](C(=O)N[C@@H](CCCCNC(=O)CN3CCN(CC(=O)O)CCN(CC(=O)O)CCN(CC(=O)O)CC3)CC(=O)O)NC(=O)[C@H](Cc3ccccc3)NC(=O)[C@H](CCC(=O)O)NC(=O)[C@H]([C@@H](C)O)NC(=O)[C@@H]3CCCN3C(=O)[C@@H]3CCCN3C1=O)C(=O)NC2=O
B4: compound DOTA-Nle-[Cys-Pro-Pro-Thr-Glu-Phe-Cys]-Asp-NH2 (1004) (peptide)
peptide: CPPTEFCD
HELM: PEPTIDE1{[O=C(O)CN1CCN(CC(=O)O)CCN(CC(=O)[*:2])CCN(CC(=O)O)CC1].[Nle].C.P.P.T.E.F.C.D.[am]}$PEPTIDE1,PEPTIDE1,3:R3-9:R3$$$V2.0
SMILES: CCCC[C@H](NC(=O)CN1CCN(CC(=O)O)CCN(CC(=O)O)CCN(CC(=O)O)CC1)C(=O)N[C@H]1CSSC[C@@H](C(=O)N[C@@H](CC(=O)O)C(N)=O)NC(=O)[C@H](Cc2ccccc2)NC(=O)[C@H](CCC(=O)O)NC(=O)[C@H]([C@@H](C)O)NC(=O)[C@@H]2CCCN2C(=O)[C@@H]2CCCN2C1=O

Target: T1, fibroblast activation protein (FAP) on FAP-expressing human WI-38 fibroblasts (human, UniProt Q12884 1-760)
T1 construct: Endogenous FAP on WI-38 cells (ECACC) in the FACS assay; also called human FAP
Assay: competitive FACS on WI-38 cells vs 3 nM Cy5-labeled probe; A = pIC50 >7.0
Protocol: FAP-expressing human WI-38 fibroblasts (ECACC) were cultured in EMEM including 15% fetal bovine serum, 2 mM L-Glutamine and 1% Non-essential amino acids. Cells were detached with Accutase (Biolegend, #BLD-423201) and washed in FACS buffer (PBS including 1% FBS). Cells were diluted in FACS buffer to a final concentration of 100.000 cells per ml and 200 μl of the cell suspension are transferred to a u-shaped non-binding 96-well plate (Greiner). […] Cell were washed twice with FACS buffer and resuspended in 200 μl FACS buffer. Cells were analyzed in an Attune NxT flow cytometer. Median fluorescence intensities (Cy5 channel) was calculated by Attune NxT software and plotted against peptide concentrations. Four parameter logistic (4PL) curve fitting and pIC50 calculations were performed using ActivityBase software.

Row | Binder | pIC50 Category (FACS)
1 | B1 | > 7 pIC50
2 | B2 | > 7 pIC50
3 | B3 | > 7 pIC50
4 | {DOTA-Ttds}-[Nle]CPPTEFCD[4Amb]R-NH2 (disulfide 2-8, By the running order it belongs to 1007) [compound DOTA-Ttds-Nle-[Cys-Pro-Pro-Thr-Glu-Phe-Cys]-Asp-Pamb-Arg-NH2 (1007)] | > 7 pIC50
5 | {DOTA-Ttds}-[Nle]CPPTQFCD[4Amb]R-NH2 (linker 2-8 via Maleimide(3,4-diyl)) [compound DOTA-Ttds-Nle-[Cys(mli)-Pro-Pro-Thr-Gln-Phe-Cys]-Asp-Pamb-Arg-NH2 (2006)] | > 7 pIC50
6 | Buur-CPPTQFCDK(DOTA)-NH2 (linker 1-7 via mli) [compound Buur-[Cys(mli)-Pro-Pro-Thr-Gln-Phe-Cys]-Asp-Lys(DOTA)-NH2 (2014)] | > 7 pIC50
7 | {DOTA-O2Oc}-[Nle]CPPTQFCD-NH2 (linker 2-8 via mli) [compound DOTA-O2Oc-Nle-[Cys(mli)-Pro-Pro-Thr-Gln-Phe-Cys]-Asp-NH2 (2004)] | > 7 pIC50
8 | {DOTA-Ttds}-[Nle]CPPTQFCD-NH2 (linker 2-8 via mli) [compound DOTA-Ttds-Nle-[Cys(mli)-Pro-Pro-Thr-Gln-Phe-Cys]-Asp-NH2 (2005)] | > 7 pIC50

Target: Recombinant human FAP (R&D systems, #3715-SE) (human, UniProt Q12884 26-760)
Assay: cell-based or functional assay

Row | Binder | pIC50 Category (Activity), FRET-based FAP protease activity assay
9 | Hexanoyl-CPPTEFCD-NH2 (linker 1-7 via mli(DOTA-Ttd)) [compound Hex-[Cys(mli(DOTA-Ttd))-Pro-Pro-Thr-Glu-Phe-Cys]-Asp-NH2 (2020)] | > 7 pIC50
10 | {DOTA-Ttds}-[Nle]CPPTEFCD-NH2 (disulfide 2-8) [compound DOTA-Ttds-Nle-[Cys-Pro-Pro-Thr-Glu-Phe-Cys]-Asp-NH2 (1003)] | > 7 pIC50
11 | B4 | > 7 pIC50
12 | {DOTA-Ttds}-[Nle]CPPTEFCD-NH2 (linker 2-8 via mli) [compound DOTA-Ttds-Nle-[Cys(mli)-Pro-Pro-Thr-Glu-Phe-Cys]-Asp-NH2 (2007)] | > 7 pIC50
13 | B1 | > 7 pIC50
14 | B2 | > 7 pIC50
15 | B3 | > 7 pIC50
16 | {DOTA-Ttds}-[Nle]CPPTEFCD[4Amb]R-NH2 (disulfide 2-8, By the running order it belongs to 1007) [compound DOTA-Ttds-Nle-[Cys-Pro-Pro-Thr-Glu-Phe-Cys]-Asp-Pamb-Arg-NH2 (1007)] | > 7 pIC50
17 | {DOTA-Ttds}-[Nle]CPPTQFCD[4Amb]R-NH2 (linker 2-8 via Maleimide(3,4-diyl)) [compound DOTA-Ttds-Nle-[Cys(mli)-Pro-Pro-Thr-Gln-Phe-Cys]-Asp-Pamb-Arg-NH2 (2006)] | > 7 pIC50
18 | Buur-CPPTQFCDK(DOTA)-NH2 (linker 1-7 via mli) [compound Buur-[Cys(mli)-Pro-Pro-Thr-Gln-Phe-Cys]-Asp-Lys(DOTA)-NH2 (2014)] | > 7 pIC50
19 | {DOTA-O2Oc}-[Nle]CPPTQFCD-NH2 (linker 2-8 via mli) [compound DOTA-O2Oc-Nle-[Cys(mli)-Pro-Pro-Thr-Gln-Phe-Cys]-Asp-NH2 (2004)] | > 7 pIC50
20 | {DOTA-Ttds}-[Nle]CPPTQFCD-NH2 (linker 2-8 via mli) [compound DOTA-Ttds-Nle-[Cys(mli)-Pro-Pro-Thr-Gln-Phe-Cys]-Asp-NH2 (2005)] | > 7 pIC50
